Tested on: B. subtilis peptidoglycan
Assay: Peptidoglycan binding (pelleting with insoluble peptidoglycan, SDS-PAGE/Coomassie)
Design: species or system Bacillus subtilis
Conditions: for binding to cell wall (result in words): his6-tagged extracellular domain
From the text: Peptidoglycan Binding. The C-terminal fragment of PrkC (His6-PASTABs) composed of residues 357-648 was purified using Ni^2+ affinity chromatography with an E. coli strain carrying pIMS40 that overproduces His6-PASTABs. His6-Yycl composed of residues 31-280 was purified using identical methodology using an E. coli strain carrying pIMS36. His6-AcmA composed of residues 243-439 using an E. coli strain carrying pIMS42 and His6-PASTASa composed of residues 378-644 using an E. coli strain carrying pIMS44 were purified using identical methodology. 50 μg of proteins was separately incubated with purified B. subtilis or S. aureus peptidoglycan (˜5 mg) in 20 mM Tris-HCl, 50 mM MgCl2, 500 mM NaCl for 30 min at 4° C. Centrifugation (10 min, 15 k) was employed to remove the supernatant (soluble fraction) and the pellet was washed twice, then resuspended it in 2% SDS and incubated at RT for 1 h. Bound fraction (insoluble fraction) was recovered by removing the […] by centrifugation. Fractions consisting of unbound soluble protein and insoluble bound protein, and the wash were analyzed by SDS-PAGE. The gels were stained with Coomassie blue and the differences in the amounts of His6-PASTA in the two fractions were determined by measurement of the appropriate bands using ImageJ (NIH).

B1: His6-PASTABs: His-tagged C-terminal extracellular fragment of B. subtilis PrkC, residues 357-648, three PASTA repeats (protein)
chain: MLIGKRISGRYQILRVIGGGGMANVYLAEDIILDREVAIKILRFDYANDNEFIRRFRREAQSASSLDHPNIVSIYDLGEEDDIYYIVMEYVEGMTLKEYITANGPLHPKEALNIMEQIVSAIAHAHQNQIVHRDIKPHNILIDHMGNIKVTDFGIATALSSTTITHTNSVLGSVHYLSPEQARGGLATKKSDIYALGIVLFELLTGRIPFDGESAVSIALKHLQAETPSAKRWNPSVPQSVENIILKATAKDPFHRYETAEDMEADIKTAFDADRLNEKRFTIQEDEEMTKAIPIIKDEELAKAAGEKEAEVTTAQENKTKKNGKRKKWPWVLLTICLVFITAGILAVTVFPSLFMPKDVKIPDVSGMEYEKAAGLLEKEGLQVDSEVLEISDEKIEEGLMVKTDPKADTTVKEGATVTLYKSTGKAKTEIGDVTGQTVDQAKKALKDQGFNHVTVNEVNDEKNAGTVIDQNPSAGTELVPSEDQVKLTVSIGPEDITLRDLKTYSKEAASGYLEDNGLKLVEKEAYSDDVPEGQVVKQKPAAGTAVKPGNEVEVTFSLGPEKKPAKTVKEKVKIPYEPENEGDELQVQIAVDDADHSISDTYEEFKIKEPTERTIELKIEPGQKGYYQVMVNNKVVSYKTIEYPKDE
- % of total protein associated with the insoluble (peptidoglycan-bound) fraction (50 μg protein, ˜5 mg purified peptidoglycan): Approximately 40%
- binding to cell wall (result in words): binds to cell wall much better than Yycl
- binding to cell wall (result in words) (listed as extracellular domain of PrkC): bound to cell wall much better than a control protein

From patent publication US20110086797A1, “CONTROL OF SPORE GERMINATION” (priority 2007, published 2011)
